Results published in PMC12145829, “The maternal vGluT2 and embryonic mGluR3 signaling relay system controls offspring wing dimorphism in pea aphid”.

Key:
MBP-ApFoxO DBD [1] = molecular target: T1, MBP-ApFoxO DBD (Acyrthosiphon pisum, UniProt A0A8R1VZ87 89-178); assay: EMSA; 0.5 and 5 ug protein; EMSA: room temperature, 30 min; 6% native PAGE in 0.5x TBE, 60 V, 4 C; binding buffer, salt and pH not stated; conditions: protein: recombinant; tags: N-terminal MBP (pMAL-c2x); label: 5' biotin
MBP-ApFoxO DBD [2] = molecular target: T1, MBP-ApFoxO DBD; assay: EMSA; 0.5 and 5 ug protein; concentration-dependent shift; EMSA: room temperature, 30 min; 6% native PAGE in 0.5x TBE, 60 V, 4 C; binding buffer, salt and pH not stated; conditions: protein: recombinant; tags: N-terminal MBP (pMAL-c2x); label: 5' biotin
MBP-ApFoxO DBD [3] = molecular target: T1, MBP-ApFoxO DBD; assay: competition; 5x and 25x unlabeled probe vs labeled FRE2; shift greatly reduced; EMSA: room temperature, 30 min; 6% native PAGE in 0.5x TBE, 60 V, 4 C; binding buffer, salt and pH not stated; conditions: protein: recombinant; tags: N-terminal MBP (pMAL-c2x)
MBP-ApFoxO DBD [4] = molecular target: T1, MBP-ApFoxO DBD; assay: EMSA; 0.5 ug protein, 5x labeled mutant probe; EMSA: room temperature, 30 min; 6% native PAGE in 0.5x TBE, 60 V, 4 C; binding buffer, salt and pH not stated; conditions: protein: recombinant; tags: N-terminal MBP (pMAL-c2x); label: 5' biotin

T1 sequence (A0A8R1VZ87 entry or part of it): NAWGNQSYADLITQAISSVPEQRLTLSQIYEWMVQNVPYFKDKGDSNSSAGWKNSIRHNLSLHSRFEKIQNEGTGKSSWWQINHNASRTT

B1: ApHh promoter FRE1 probe (dsDNA)
DNA 1: TTGACTGTAGTATGTAAACATTTCTGAACTCCA
DNA 2: TGGAGTTCAGAAATGTTTACATACTACAGTCAA
Question: Does B1 bind (MBP-ApFoxO DBD [1])?
Answer: no binding

B2: ApHh promoter FRE2 probe (dsDNA)
DNA 1: GATATAGTTTACATGTTTACATGACGGCAGAGA
DNA 2: TCTCTGCCGTCATGTAAACATGTAAACTATATC
Question: Does B2 bind (MBP-ApFoxO DBD [2])?
Answer: binds

B3: FRE2 unlabeled competitor (dsDNA)
DNA 1: GATATAGTTTACATGTTTACATGACGGCAGAGA
DNA 2: TCTCTGCCGTCATGTAAACATGTAAACTATATC
Question: Does B3 bind (MBP-ApFoxO DBD [3])?
Answer: binds

B4: FRE2 mutant (FRE_m) (dsDNA)
DNA 1: GATATAGTTTACACACCCGTATGACGGCAGAGA
DNA 2: TCTCTGCCGTCATACGGGTGTGTAAACTATATC
Question: Does B4 bind (MBP-ApFoxO DBD [4])?
Answer: no binding
